Data published in the supplement of paper PMC10065799, “High-throughput profiling of sequence recognition by tyrosine kinases and SH2 domains using bacterial peptide display” (eLife, 2023).

Columns and labels:
MERTK = MERTK (UniProt Q12866); assay: phosphorylation enrichment, bacterial display (enrichment ratio); higher = better substrate or ligand; peptides without Tyr show the background
Fer (mouse) = assay: as above
Jak2 = Jak2 (UniProt O60674); assay: as above
Fyn = Fyn (UniProt P06241); assay: as above
FGFR3 = FGFR3 (UniProt P22607); assay: as above
EPHB2 = EPHB2 (UniProt P29323); assay: as above
EPHB1 = EPHB1 (UniProt P54762); assay: as above
Hck = Hck (UniProt P08631); assay: as above
AncSZ = assay: as above
Fes = Fes (UniProt P07332); assay: as above
FGFR1 = FGFR1 (UniProt P11362); assay: as above
c-Src = assay: as above
c-Abl (mouse) = assay: as above
SHP2-C SH2 = assay: SH2 binding enrichment of the phosphorylated peptide, bacterial display (enrichment ratio); higher = better substrate or ligand; peptides without Tyr show the background
c-Src SH2 = assay: as above
Grb2 SH2 = Grb2 SH2 (UniProt P62993); assay: as above
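Throughout, for SH2 binding enrichment of the phosphorylated peptide, bacterial display: peptide library displayed on the E. coli surface as eCPX fusions, selected cells deep-sequenced, score is each peptide's frequency after selection divided by its frequency in the input.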
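Throughout, for phosphorylation enrichment, bacterial display: 11-residue human phosphosite peptides and single-mutation variants displayed on the E. coli surface, counted by deep sequencing, each peptide's frequency after selection divided by its frequency in the unselected input library; frequency after pTyr selection over input frequency; kinase dosed for 20-30% of maximal phosphorylation in three min.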

Sequence of FGFR1 (P11362 whole entry, looked up): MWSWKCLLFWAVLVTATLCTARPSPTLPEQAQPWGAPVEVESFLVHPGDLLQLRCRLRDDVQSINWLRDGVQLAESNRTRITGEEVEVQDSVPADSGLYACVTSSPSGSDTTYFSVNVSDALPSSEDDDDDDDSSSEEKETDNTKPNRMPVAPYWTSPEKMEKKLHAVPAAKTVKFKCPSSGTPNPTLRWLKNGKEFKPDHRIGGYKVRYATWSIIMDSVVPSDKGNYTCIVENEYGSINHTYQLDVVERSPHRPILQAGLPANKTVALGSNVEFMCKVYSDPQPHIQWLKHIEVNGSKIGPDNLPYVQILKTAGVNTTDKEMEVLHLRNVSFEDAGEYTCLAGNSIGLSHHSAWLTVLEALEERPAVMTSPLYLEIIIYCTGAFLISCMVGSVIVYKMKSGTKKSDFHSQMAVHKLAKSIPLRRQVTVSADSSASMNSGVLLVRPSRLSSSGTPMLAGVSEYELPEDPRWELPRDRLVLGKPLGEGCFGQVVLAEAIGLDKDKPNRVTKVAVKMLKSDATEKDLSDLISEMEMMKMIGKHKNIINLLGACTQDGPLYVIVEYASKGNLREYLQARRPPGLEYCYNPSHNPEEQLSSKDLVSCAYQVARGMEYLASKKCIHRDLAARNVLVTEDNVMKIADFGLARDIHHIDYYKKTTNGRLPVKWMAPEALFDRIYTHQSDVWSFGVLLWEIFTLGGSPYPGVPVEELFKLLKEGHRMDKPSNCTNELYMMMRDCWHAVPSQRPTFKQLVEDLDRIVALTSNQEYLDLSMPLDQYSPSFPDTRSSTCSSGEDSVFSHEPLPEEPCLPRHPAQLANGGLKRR
Sequence of Hck (P08631 whole entry, looked up): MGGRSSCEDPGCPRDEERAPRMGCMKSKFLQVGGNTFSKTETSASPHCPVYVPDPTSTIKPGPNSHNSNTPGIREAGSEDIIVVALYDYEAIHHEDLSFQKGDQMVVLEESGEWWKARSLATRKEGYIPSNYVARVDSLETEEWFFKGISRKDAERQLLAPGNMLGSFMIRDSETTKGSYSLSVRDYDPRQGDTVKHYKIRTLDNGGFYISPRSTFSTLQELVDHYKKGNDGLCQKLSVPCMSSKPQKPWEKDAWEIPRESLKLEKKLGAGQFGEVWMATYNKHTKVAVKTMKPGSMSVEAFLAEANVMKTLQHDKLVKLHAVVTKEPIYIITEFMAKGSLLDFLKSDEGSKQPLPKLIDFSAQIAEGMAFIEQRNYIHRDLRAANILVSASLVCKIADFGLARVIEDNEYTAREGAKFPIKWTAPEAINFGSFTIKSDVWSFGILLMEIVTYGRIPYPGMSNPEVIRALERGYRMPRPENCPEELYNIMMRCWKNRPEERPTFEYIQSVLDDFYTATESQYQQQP
Sequence of EPHB1 (P54762 whole entry, looked up): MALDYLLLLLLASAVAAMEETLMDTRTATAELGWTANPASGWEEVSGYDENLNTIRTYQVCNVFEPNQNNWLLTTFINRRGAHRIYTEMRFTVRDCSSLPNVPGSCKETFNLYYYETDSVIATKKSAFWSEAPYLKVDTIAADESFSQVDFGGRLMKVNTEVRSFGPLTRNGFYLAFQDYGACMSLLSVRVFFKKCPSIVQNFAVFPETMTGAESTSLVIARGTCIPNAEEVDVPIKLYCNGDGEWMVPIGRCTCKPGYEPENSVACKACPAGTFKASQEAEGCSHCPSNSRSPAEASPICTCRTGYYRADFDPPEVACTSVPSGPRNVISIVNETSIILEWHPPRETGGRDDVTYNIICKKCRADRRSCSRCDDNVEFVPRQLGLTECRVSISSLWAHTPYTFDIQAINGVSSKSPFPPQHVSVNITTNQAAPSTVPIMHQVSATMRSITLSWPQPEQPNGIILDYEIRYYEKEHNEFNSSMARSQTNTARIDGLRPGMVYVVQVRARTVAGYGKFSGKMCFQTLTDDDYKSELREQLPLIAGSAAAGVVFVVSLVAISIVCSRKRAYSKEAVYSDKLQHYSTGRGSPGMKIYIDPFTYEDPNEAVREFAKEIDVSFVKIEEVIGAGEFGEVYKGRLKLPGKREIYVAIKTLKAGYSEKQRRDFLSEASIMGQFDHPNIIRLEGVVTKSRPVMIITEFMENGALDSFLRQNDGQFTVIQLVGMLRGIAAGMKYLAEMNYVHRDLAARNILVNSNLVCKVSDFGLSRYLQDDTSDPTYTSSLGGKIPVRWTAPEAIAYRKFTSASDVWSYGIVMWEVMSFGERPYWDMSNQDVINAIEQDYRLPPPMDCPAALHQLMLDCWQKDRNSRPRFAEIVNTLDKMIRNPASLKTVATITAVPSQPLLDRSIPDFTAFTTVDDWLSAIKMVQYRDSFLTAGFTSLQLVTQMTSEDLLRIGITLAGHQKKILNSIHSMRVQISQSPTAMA
Sequence of EPHB2 (P29323 whole entry, looked up): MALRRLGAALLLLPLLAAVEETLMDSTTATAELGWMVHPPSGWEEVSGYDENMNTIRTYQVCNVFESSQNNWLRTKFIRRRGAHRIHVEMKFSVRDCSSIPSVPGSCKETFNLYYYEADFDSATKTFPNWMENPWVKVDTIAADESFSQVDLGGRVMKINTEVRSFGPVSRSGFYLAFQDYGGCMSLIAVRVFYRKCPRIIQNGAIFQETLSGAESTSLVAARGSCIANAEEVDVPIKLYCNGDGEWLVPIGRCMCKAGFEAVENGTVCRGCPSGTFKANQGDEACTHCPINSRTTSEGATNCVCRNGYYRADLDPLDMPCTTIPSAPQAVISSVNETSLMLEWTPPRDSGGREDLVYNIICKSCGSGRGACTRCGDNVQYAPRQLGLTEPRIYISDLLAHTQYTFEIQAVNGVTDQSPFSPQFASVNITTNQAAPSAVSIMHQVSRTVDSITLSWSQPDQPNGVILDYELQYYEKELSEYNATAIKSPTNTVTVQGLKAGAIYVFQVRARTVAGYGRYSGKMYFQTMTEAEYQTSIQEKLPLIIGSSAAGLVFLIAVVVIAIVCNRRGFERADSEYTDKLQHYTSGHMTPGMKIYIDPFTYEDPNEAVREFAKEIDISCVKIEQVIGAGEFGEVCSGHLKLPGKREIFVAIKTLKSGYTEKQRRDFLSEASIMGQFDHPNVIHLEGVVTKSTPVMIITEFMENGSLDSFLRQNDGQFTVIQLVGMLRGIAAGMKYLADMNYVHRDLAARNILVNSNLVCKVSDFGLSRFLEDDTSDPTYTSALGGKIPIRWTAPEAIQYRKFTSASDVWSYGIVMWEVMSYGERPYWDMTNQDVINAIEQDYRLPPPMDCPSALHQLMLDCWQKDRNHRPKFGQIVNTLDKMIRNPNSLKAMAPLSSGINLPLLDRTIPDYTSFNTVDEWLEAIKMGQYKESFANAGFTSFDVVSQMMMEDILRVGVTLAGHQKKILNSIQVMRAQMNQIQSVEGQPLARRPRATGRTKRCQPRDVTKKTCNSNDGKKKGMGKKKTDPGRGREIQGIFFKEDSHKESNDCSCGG
Sequence of Fes (P07332 whole entry, looked up): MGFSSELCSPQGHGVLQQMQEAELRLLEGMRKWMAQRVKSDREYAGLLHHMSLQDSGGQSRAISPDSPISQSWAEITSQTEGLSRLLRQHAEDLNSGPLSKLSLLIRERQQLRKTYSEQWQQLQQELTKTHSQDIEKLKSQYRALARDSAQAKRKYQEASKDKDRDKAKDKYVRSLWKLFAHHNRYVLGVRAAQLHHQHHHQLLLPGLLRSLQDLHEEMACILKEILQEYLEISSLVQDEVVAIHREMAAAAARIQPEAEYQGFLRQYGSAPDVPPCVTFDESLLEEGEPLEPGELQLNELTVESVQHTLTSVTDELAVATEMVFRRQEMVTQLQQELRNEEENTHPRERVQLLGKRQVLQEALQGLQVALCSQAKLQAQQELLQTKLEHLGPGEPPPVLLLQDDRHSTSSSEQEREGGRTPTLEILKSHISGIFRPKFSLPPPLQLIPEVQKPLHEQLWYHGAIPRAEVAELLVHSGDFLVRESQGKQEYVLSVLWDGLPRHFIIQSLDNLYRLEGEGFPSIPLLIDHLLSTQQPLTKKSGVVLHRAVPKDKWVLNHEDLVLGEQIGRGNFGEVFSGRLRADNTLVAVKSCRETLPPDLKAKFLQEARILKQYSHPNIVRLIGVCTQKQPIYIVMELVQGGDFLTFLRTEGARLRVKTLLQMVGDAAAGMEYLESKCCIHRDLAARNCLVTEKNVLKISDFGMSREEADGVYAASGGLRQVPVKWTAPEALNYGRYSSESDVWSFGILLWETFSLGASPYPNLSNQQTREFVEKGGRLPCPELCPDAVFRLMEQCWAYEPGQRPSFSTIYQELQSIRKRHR
Sequence of Fyn (P06241 whole entry, looked up): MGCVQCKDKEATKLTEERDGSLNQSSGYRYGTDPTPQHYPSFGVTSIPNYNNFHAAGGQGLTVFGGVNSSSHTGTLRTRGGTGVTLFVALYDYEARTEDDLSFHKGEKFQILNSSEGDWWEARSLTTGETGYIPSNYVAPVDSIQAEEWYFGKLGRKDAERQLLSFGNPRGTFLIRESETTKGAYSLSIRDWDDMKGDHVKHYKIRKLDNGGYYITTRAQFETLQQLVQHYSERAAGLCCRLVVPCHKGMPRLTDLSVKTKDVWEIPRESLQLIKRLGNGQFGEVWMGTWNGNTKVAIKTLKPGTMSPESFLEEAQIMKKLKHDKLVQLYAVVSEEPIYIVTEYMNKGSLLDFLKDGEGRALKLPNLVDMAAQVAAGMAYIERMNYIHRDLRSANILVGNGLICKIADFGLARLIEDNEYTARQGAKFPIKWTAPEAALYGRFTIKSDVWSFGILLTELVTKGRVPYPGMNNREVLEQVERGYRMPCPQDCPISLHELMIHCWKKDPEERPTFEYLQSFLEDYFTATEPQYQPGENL

SH2 binding enrichment (SHP2-C SH2) | SH2 binding enrichment (c-Src SH2) | SH2 binding enrichment (Grb2 SH2) | Sequence | phosphorylation enrichment (MERTK) | phosphorylation enrichment (Fer (mouse)) | phosphorylation enrichment (Jak2) | phosphorylation enrichment (Fyn) | phosphorylation enrichment (FGFR3) | phosphorylation enrichment (EPHB2) | phosphorylation enrichment (EPHB1) | phosphorylation enrichment (Hck) | phosphorylation enrichment (AncSZ) | phosphorylation enrichment (Fes) | phosphorylation enrichment (FGFR1) | phosphorylation enrichment (c-Src) | phosphorylation enrichment (c-Abl (mouse))
0.529 | 0.519 | 0.819 | VVEVTYDDVPI [FLNB_Y1308] | 0.688 | 5.94 | 1.1 | 1.76 | 0.947 | 1.07 | 1.57 | 1.82 | 2.02 | 1.56 | 0.742 | 1.3 | 0.805
1.51 | 0.89 | 1.31 | PPAPRCHHSAV [LZTR1_Y119_Y119C] | 0.566 | 2.15 | 1.75 | 0.921 | 1.21 | 0.701 | 1.17 | 1.28 | 1.61 | 2.01 | 0.839 | 0.718 | 0.842
0.607 | 0.541 | 1.1 | RKLVDYDSAQH [BIN1_Y150_R154Q] | 0.565 | 0.737 | 0.56 | 0.4 | 1.28 | 0.796 | 0.648 | 0.668 | 0.548 | 0.988 | 0.425 | 0.541 | 0.871
0.633 | 0.545 | 0.785 | AAGGRYDGLLG [HARS2_Y364_V368L] | 0.451 | 0.452 | 0.645 | 0.548 | 0.531 | 0.415 | 0.471 | 0.459 | 0.631 | 0.85 | 0.457 | 0.468 | 1.01
0.776 | 0.502 | 0.875 | FETDFYRKGGK [INSR_Y1190_YF] | 0.468 | 0.319 | 0.6 | 0.381 | 0.472 | 0.639 | 0.621 | 0.418 | 0.629 | 0.758 | 0.435 | 0.482 | 0.539
1.52 | 0.533 | 0.92 | VMSGPYELKAL [IL1B_Y140] | 0.351 | 0.447 | 0.463 | 0.564 | 0.57 | 0.512 | 0.303 | 0.491 | 0.51 | 0.622 | 0.419 | 0.873 | 0.481
0.566 | 0.52 | 0.804 | KVDKEYEVHVR [GHR_Y226_R229H] | 0.416 | 0.498 | 0.725 | 0.485 | 0.555 | 0.548 | 0.68 | 0.497 | 0.934 | 0.956 | 0.474 | 0.444 | 0.576
0.657 | 0.445 | 0.92 | LRAGVYHEKDQ [DNM2_Y626_P627H] | 0.491 | 0.509 | 1.08 | 0.608 | 0.763 | 0.451 | 0.629 | 0.605 | 0.735 | 1.29 | 0.635 | 0.617 | 0.877
0.659 | 0.449 | 0.76 | SSREGYVSHHN [FAM83B_Y433] | 0.453 | 0.326 | 0.48 | 0.457 | 0.464 | 0.321 | 0.345 | 0.354 | 0.548 | 0.502 | 0.443 | 0.399 | 0.445
1.88 | 1.71 | 1.69 | LIHLHYIRKDY [BBS4_Y43] | 0.377 | 0.447 | 0.857 | 0.548 | 0.763 | 0.63 | 0.602 | 0.444 | 1.21 | 1.14 | 0.517 | 0.393 | 0.632
0.553 | 0.471 | 0.95 | DASAVYLRDFQ [PLCG2_Y242_H244R] | 0.675 | 0.452 | 0.894 | 0.562 | 0.58 | 0.492 | 0.506 | 0.544 | 0.769 | 0.963 | 0.425 | 0.693 | 0.986
0.545 | 0.457 | 0.804 | NDPMEYAKQHG [ASS1_Y163_L160P] | 0.465 | 0.426 | 0.86 | 0.389 | 0.527 | 0.485 | 0.419 | 0.467 | 0.769 | 0.876 | 0.415 | 0.396 | 0.718
0.937 | 0.517 | 1.06 | NPQKSYFIRLY [WAS_Y83] | 0.353 | 0.542 | 1.07 | 0.372 | 0.745 | 0.637 | 0.61 | 0.452 | 1.16 | 1.15 | 0.486 | 0.349 | 0.724
0.975 | 0.654 | 0.896 | LKEIHYPPYTD [ALDH3B2_Y362] | 0.573 | 0.584 | 1.01 | 0.718 | 0.826 | 0.744 | 0.735 | 0.929 | 1.18 | 1.17 | 0.645 | 0.917 | 0.763
0.486 | 0.537 | 0.628 | IRNRDYDDIDD [TTYH2_Y424_T419I] | 0.541 | 0.494 | 0.676 | 0.594 | 0.676 | 0.575 | 0.466 | 0.515 | 1.07 | 0.887 | 0.7 | 0.491 | 0.649

Sequence | SH2 binding enrichment (SHP2-C SH2) | SH2 binding enrichment (c-Src SH2) | SH2 binding enrichment (Grb2 SH2) | phosphorylation enrichment (MERTK) | phosphorylation enrichment (Fer (mouse)) | phosphorylation enrichment (Jak2) | phosphorylation enrichment (Fyn) | phosphorylation enrichment (FGFR3) | phosphorylation enrichment (EPHB2) | phosphorylation enrichment (EPHB1) | phosphorylation enrichment (Hck) | phosphorylation enrichment (AncSZ) | phosphorylation enrichment (Fes) | phosphorylation enrichment (FGFR1) | phosphorylation enrichment (c-Src) | phosphorylation enrichment (c-Abl (mouse))
KDGNGYISAAE [CALM1_Y100] | 0.746 | 0.571 | 0.742 | 0.47 | 0.389 | 0.685 | 0.463 | 0.594 | 0.491 | 0.394 | 0.542 | 0.646 | 0.76 | 0.477 | 0.416 | 0.546
